Source: publication PMC7422940 (Journal of bone and mineral research : the official journal …, 2019)

Target: T1, His-tagged full-length ATF4 (mouse, UniProt Q06507 1-349)
T1 sequence (looked up): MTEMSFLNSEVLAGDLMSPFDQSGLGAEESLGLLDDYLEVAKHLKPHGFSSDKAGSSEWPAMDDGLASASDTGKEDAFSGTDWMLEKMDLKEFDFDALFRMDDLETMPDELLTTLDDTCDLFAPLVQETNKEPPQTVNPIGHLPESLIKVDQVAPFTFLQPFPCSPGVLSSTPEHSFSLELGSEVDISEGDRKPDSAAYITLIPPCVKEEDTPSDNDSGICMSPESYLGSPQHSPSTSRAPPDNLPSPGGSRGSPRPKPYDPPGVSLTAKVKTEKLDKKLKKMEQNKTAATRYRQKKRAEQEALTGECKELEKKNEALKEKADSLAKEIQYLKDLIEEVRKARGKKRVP
Experiment: pull-down

binding result: binds
B1: GST-Hop2^81−147 (domain or fragment, mouse, UniProt O35047 81-147, looked up)
chain: VSDADLHGLDASIVALTAKVQSLQQSCRHMEAELKELTSALTTPEMQKEIQELKKECAQYTERLKNI
